Key:
Test in all cases: EMSA
SETX-HD-R/H = target: T1, SETX-HD-R/H (Homo sapiens, UniProt Q7Z333 1674-2677, R2136H)
T1 sequence: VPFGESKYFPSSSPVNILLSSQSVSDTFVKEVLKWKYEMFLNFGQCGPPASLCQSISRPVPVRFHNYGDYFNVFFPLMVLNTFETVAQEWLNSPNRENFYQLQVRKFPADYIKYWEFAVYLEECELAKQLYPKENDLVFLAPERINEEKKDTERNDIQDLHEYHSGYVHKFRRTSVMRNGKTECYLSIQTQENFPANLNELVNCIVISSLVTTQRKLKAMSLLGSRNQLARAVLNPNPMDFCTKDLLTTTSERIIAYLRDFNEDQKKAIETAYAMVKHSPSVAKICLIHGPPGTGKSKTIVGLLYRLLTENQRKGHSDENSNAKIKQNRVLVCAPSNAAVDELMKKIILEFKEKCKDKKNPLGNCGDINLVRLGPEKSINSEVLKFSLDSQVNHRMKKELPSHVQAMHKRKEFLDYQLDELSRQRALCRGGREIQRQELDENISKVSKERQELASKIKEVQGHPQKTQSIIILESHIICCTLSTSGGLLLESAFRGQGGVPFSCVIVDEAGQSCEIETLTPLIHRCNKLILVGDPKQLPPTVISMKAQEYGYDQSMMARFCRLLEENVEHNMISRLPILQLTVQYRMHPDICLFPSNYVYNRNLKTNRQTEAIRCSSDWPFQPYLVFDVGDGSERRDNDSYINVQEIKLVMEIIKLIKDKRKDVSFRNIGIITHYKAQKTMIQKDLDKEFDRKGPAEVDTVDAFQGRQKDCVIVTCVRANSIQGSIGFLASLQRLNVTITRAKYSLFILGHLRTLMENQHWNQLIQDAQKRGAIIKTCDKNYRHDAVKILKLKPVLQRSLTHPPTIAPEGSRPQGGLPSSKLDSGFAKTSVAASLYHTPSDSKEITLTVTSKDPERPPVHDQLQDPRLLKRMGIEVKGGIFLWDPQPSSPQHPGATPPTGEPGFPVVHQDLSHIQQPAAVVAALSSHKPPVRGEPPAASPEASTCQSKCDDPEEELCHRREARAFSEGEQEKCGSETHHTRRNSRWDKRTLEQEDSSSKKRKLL

Sen1-HD = target: T2, Sen1-HD (UniProt Q00416 1095-1904)
T2 sequence: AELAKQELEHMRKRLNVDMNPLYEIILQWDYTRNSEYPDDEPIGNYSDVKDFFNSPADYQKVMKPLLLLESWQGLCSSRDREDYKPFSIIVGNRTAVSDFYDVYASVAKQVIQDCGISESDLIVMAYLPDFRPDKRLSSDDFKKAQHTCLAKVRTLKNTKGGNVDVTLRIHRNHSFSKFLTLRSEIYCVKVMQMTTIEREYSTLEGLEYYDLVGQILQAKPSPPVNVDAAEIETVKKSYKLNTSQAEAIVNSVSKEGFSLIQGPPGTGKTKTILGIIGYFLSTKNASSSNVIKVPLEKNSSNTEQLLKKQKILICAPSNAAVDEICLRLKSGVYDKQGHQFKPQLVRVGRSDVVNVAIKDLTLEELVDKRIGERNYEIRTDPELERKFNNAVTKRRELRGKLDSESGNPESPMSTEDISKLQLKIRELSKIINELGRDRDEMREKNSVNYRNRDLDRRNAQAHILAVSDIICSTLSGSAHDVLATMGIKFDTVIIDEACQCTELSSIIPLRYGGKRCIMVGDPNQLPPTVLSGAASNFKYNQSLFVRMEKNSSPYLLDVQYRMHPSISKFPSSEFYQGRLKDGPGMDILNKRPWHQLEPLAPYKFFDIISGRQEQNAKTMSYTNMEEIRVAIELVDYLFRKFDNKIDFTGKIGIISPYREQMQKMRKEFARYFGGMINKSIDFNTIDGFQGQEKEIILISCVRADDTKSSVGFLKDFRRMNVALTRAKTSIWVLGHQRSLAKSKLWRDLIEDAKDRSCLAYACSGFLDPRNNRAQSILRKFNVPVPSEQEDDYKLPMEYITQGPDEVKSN

SETX-HD-DE/AA = target: T3, SETX-HD-DE/AA (Homo sapiens, UniProt Q7Z333 1674-2677, D2181A;E2182A)
T3 sequence: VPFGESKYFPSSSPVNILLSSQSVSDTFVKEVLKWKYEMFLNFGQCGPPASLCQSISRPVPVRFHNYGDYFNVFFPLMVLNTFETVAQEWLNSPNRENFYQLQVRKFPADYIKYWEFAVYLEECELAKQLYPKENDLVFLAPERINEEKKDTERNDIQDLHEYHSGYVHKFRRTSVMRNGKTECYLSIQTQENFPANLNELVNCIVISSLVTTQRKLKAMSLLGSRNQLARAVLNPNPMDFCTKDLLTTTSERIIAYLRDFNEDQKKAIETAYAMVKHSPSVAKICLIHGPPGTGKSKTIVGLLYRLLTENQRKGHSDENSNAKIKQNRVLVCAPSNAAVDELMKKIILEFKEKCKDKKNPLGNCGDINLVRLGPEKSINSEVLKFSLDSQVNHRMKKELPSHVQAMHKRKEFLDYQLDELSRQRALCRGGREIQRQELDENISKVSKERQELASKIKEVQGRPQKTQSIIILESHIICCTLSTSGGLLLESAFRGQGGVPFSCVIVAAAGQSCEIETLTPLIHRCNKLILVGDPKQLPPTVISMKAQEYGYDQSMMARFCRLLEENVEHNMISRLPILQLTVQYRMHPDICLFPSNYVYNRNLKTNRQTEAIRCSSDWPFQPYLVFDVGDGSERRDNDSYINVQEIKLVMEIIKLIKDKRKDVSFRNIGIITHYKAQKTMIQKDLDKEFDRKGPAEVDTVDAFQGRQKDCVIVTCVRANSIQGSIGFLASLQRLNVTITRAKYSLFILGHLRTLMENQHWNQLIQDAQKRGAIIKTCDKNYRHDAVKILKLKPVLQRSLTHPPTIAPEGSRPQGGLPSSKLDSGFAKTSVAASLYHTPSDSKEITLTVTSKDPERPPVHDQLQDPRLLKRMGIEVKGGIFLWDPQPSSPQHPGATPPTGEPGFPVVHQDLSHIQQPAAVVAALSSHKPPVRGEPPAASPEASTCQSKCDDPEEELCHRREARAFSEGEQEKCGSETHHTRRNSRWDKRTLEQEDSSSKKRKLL

Measured: binding result

B1: ssDNA pRMS679 (61 nt) (ssDNA)
DNA: TTGTCTTCTCATAAATTTAATCCCCGTACGCTTATACTCCTTTAACTACCCAGTCTTCCCG
binds: all assays above

Source: publication PMC10085699
